Reference: US20210395381A1 (OSSIANIX, published 2021)

B1: Clone 10 (VNAR)
VNAR: ARVDQTPQTITKETGESLTINCVLRDSNCALSNLYWYRKKSGSTNEESISLGGRYVETVNSGSKSFSLRINDLTVEDSGTYRCNVVQYPTAKCRQVDVYGGGTAVTVNA
notes: VNAR on phage
B2: Clone 39 (VNAR)
VNAR: ARVDQTPQTITKETGESLTINCVLRDSNCELSSTYWYRKKSGSTNEESISLGGRYVETVNSGSKSFSLRINDLTVEDSGTYRCNVQSAMLMLCLSRFDVYGGGTAVTVNA
notes: VNAR on phage
B3: Clone 1 (VNAR)
VNAR: ARVDQTPQTITKETGESLTINCVLRDNNCALSTTYWYRKKSGSTNEESISLGGRYVETVNSGSKSFSLRINDLTVEDSGTYRCNVSDVVSCDDGWNWLDVYGGGTAVTVNA
notes: VNAR on phage
B4: Clone 36 (VNAR)
VNAR: ARVDQTPQTITKETGESLTINCVLRDSNCALPSTYWYRKKSGSTNEESISKGGRYVETVNSGSKSFSLRINDLVVEDSGTYRCNVHCYGGDLHQLDVYGGGTAVTVNA
notes: VNAR on phage
B5: Clone 11 (VNAR)
VNAR: ARVDQTPQTITKETGESLTINCVLRDSNCALPSTYWYRKKSGSTNEESISKGGRYVETVNSGSKSFSLRINDLTVEDSGTYRCNVQWLWSFSCLPCVEDVYGGGTVVTVNA
notes: VNAR on phage
B6: Clone 40 (VNAR)
VNAR: ARVDQTPQTITKETGESLTINCVLRDSNCALSSTYWYRKKSGSTNEESISKGGRYVETVNSGSKSFSLRINDLTVEDSGTYRCKVVQFEKDCQGLLRQTNDVYGGGTVVTVNA
notes: VNAR on phage
B7: Clone 14 (VNAR)
VNAR: ARVDQTPQTITKETGESLTINCVLRDSNCALPSTYWYRKKSGSTNEESISKGGRYVETVNSGSKSFSLRINDLTVKDSGTYRCNVMVFQVSGDYSRLEDVYGGGTVVTVNA
notes: VNAR on phage
B8: Clone 35 (VNAR)
VNAR: ARVDQTPQTITKETGESLTINCVLRDSNCALSSTYWYRKKSDSTNEESISKGGRYVETVNSGSKSFSLRINDLTVKDSGTYRCNVSEDLQAICCWNDVYGDGTAVTVNA
notes: VNAR on phage
B9: Clone 37 (VNAR)
VNAR: B8 VNAR
notes: VNAR on phage
B10: Clone 12 (VNAR)
VNAR: ARVDQTPRSVTKETGESLTINCVLRDASYELGSTCWYRKKSGSTNEESISKGGRYVETVNSGSKSFSLRINDLTVEDGGTYRCGAWSRLSSSWGCDVGLQCMGCWDLWAACGDGTAVTVNA
notes: VNAR on phage
B11: Clone 13 (VNAR)
VNAR: ARVDQTPQTITKQTGESLTINCVLRDSNCALSSTYWYRKKSGSTNEESISLGGRYVETVNSGSKSFSLRINDLTVEDSGTYRCNVRRLQAWGSCRGGDVYGGGTVVTVNA
notes: VNAR on phage
B12: Clone 60 (VNAR)
VNAR: ARVDQTPQTITKETGESLTINCVLRDSNCDLSRTYWYRKKSGSTNEESISKGGRYVETVNSGSKSFSLRINDLTVEDSGTYRCNVYNPGNGWAMYDVYGGGTAVTVNA
notes: VNAR on phage
B13: Clone 34 (VNAR)
VNAR: PRVDQTPQTITKETGESLTINCVLRDSNCALSSTYWYRKKSGSTNEESISKGGRYVETVNSGSKSFSLRINDLTVEDSGTYRCNVSSNAHCDGRRRDVYGGGTAVTVNA
notes: VNAR on phage

Molecular target: T1, recombinant mouse TfR-1 (mouse, UniProt Q62351 89-763)
T1 construct: Bought recombinant protein; also called mTfR1
Test: phage ELISA
Protocol: (§1) After the third round of selection, instead of pooling bacterial colonies, individual phagemid clones were grown in 1 ml of 2TY medium containing glucose and ampicillin in 96-well blocks and used to rescue the phages. After an overnight culturing, bacteria were spun down and an aliquot of the phage supernatant was sent for Sanger sequencing (Genewiz); VNAR CDR3 sequences were identified using BioEdit (a sequence alignment editor). Another aliquot was blocked with 2.5% milk for phage ELISAs. High-binding ELISA plates (Greiner) were coated with 1 μg/ml of recombinant human or mouse TfR-1. The plates were then blocked with 2.5% milk in PBST. Blocked phages were added to the blocked plates and the VNAR-phage clones binding to the antigens were detected with HRP-labelled anti-M13 coat protein antibodies (Sino Biological), and chromogenic TMB substrate (KLM)

T1 sequence (Q62351 89-763 limits assumed): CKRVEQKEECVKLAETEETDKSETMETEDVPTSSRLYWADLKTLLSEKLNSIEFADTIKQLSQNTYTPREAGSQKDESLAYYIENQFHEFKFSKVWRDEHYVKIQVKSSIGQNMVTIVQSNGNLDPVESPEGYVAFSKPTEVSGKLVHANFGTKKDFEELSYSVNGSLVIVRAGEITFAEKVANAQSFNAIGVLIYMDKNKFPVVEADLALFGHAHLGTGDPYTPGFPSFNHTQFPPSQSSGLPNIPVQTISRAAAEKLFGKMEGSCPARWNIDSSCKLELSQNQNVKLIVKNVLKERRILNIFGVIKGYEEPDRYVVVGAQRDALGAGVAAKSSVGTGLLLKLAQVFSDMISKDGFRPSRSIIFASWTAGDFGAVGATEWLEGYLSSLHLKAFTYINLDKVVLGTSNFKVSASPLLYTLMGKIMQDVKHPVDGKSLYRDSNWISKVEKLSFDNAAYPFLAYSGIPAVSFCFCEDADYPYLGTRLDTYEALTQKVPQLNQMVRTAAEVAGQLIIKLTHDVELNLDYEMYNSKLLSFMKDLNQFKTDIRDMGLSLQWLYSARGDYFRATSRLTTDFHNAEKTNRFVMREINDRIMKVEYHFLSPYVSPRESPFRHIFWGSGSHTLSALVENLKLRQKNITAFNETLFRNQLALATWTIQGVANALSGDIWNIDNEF

Row | Binder | binding result
1 | B1 | binds
2 | B2 | no binding
3 | B3 | binds
4 | B4 | no binding
5 | B5 | binds
6 | B6 | no binding
7 | B7 | binds
8 | B8 | no binding
9 | B9 | no binding
10 | B10 | binds
11 | B11 | binds
12 | B12 | no binding
13 | B13 | no binding

Molecular target: T2, recombinant human TfR-1 (human, UniProt P02786 89-760)
T2 construct: extracellular domain; also called hTfR1; human transferrin receptor-1
Test: phage ELISA
Protocol: as §1

T2 sequence (P02786 89-760): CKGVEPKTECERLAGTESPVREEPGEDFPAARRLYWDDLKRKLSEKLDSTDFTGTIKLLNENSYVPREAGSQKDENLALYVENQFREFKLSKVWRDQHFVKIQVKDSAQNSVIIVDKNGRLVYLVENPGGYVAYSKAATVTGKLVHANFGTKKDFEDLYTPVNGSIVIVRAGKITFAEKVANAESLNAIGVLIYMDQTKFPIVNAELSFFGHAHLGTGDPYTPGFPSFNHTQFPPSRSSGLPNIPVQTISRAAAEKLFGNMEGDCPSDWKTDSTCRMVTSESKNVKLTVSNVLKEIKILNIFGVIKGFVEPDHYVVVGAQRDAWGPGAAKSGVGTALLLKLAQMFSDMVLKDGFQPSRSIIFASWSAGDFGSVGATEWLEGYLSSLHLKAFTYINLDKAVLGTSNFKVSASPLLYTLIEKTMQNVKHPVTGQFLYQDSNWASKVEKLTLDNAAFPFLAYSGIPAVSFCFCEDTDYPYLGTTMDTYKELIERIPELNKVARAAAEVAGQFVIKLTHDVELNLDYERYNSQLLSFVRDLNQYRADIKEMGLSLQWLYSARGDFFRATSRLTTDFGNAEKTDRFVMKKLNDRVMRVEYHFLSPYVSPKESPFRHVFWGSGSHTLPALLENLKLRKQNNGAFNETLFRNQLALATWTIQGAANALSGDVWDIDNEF

Row | Binder | binding result
14 | B1 | binds
15 | B3 | binds
16 | B5 | binds
17 | B7 | binds
18 | B10 | binds
19 | B11 | binds
